From patent publication US20080242590

Target: amyloid β peptide 1-40 (human)

B1: Recombinant Human Neprilysin (R&D Systems) (protein)
chain: YDDGICKSSDCIKSAARLIQNMDATTEPCTDFFKYACGGWLKRNVIPETSSRYGNFDILRDELEVVLKDVLQEPKTEDIVAVQKAKALYRSCINESAIDSRGGEPLLKLLPDIYGWPVATENWEQKYGASWTAEKAIAQLNSKYGKKVLINLFVGTDDKNSVNHVIHIDQPRLGLPSRDYYECTGIYKEACTAYVDFMISVARLIRQEERLPIDENQLALEMNKVMELEKEIANATAKPEDRNDPMLLYNKMTLAQIQNNFSLEINGKPFSWLNFTNEIMSTVNISITNEEDVVVYAPEYLTKLKPILTKYSARDLQNLMSWRFIMDLVSSLSRTYKESRNAFRKALYGTTSETATWRRCANYVNGNMENAVGRLYVEAAFAGESKHVVEDLIAQIREVFIQTLDDLTWMDAETKKRAEEKALAIKERIGYPDDIVSNDNKLNNEYLELNYKEDEYFENIIQNLKFSQSKQLKKLREKVDKDEWISGAAVVNAFYSSGRNQIVFPAGILQPPFFSAQQSNSLNYGGIGMVIGHEITHGFDDNGRNFNKDGDLVDWWTQQSASNFKEQSQCMVYQYGNFSWDLAGGQHLNGINTLGENIADNGGLGQAYRAYQNYIKKNGEEKLLPGLDLNHKQLFFLNFAQVWCGTYRPEYAVNSIKTDVHSPGNFRIIGTLQNSAEFSEAFHCRKNSYMNPEKKCRVW
- Amyloid β 1-40 peptide degradation (remaining peptide by Gyrolab immunoassay), enzyme 2.4 µg/ml, 300 nM peptide, 2.5 h at 37 °C in buffer: degraded 64% of Amyloid β 1-40 peptide (300 nM)
- degradation of Aβ40 in human plasma compared to vehicle (ELISA), 5 µg/ml, 4 h at 37 °C: degraded Aβ40 with 33% and 70%, respectively
